Experimental data from publication PMC7116788 (Nature microbiology, 2021).
Read-outs that look alike come from different tables or passages of the source.

What was measured:
cryo-EM structure [1] = target: the molecule itself; assay: cryo-EM structure
cryo-EM structure [2] = target: the molecule itself; assay: cryo-EM structure; remark: listed apart in the source

B1: PorL (Porphyromonas gingivalis ATCC 33277) (natural protein, UniProt B2RLE9 1-309, looked up)
chain: MGHYRRYKNILEMYLASHKGRRLLNIVYSWGAAVVILGALFKLLHLPMGNEMLFVGMITEFLVFFISGFEKPAMEYHWEEVFPELDSKNPMDRREMEQRREYLREKAKEAAAYAERPSSVRLASASLGTQPQEQPKPATPFQSQLTGILPEEQIQRLSEGIDKLAEAGEQLARIGRTAAAMTESYEQMQADQEGLRLNSQSYIQQMESLSRNISGLNTIYEIQLKGISSQIDTIDRINRGLAHIRDMYDNSVIDSSSFRNENERMARQLTQLNEVYARLLQALTTNVGLPGMPGNFGASNPSSSGSSPL
Does B1 bind (cryo-EM structure [1])?
Result: binds

B2: PorM (Porphyromonas gingivalis ATCC 33277) (natural protein, UniProt B2RLE8 1-516, looked up)
chain: MAVGSNGNANRQKMINLMYLVFIAMMALNVSSEVLDGFDKVDKSLTSSIDGSDKRNNLVLSELNTAYRTNPEKVKVWYERSLVLQKEADSLCTFIDDLKLAIARESDGKDAKVNDIRRKDNLDASSVVMLNPINGKGSTLRKEVDKFRELVATLMTDKAKLKLIEQALNTESGTKGKSWESSLFENMPTVAAITLLTKLQSDVRYAQGEVLADLVKSVDVGDYRVNSITAQVIPQSQIVMSGDTYKANIVLSSVDTTQRPDVFVNGKLLSPENMGLFTATAGAPGTYPVKGYIEMMGNDGVKIRRDFESEYFVTEPMASVAPTMMNVLYAGIDNPINIAVPGVAQQNVSATINNGTLTRRGNLWIARPTKVGSEAIISVTAQSGGRTIQMAKTTLRVRALPDPLPYIEYKDVQGNTKRFKGGRLGKREILAAGGIKAALDDDLLEVNYTVVKFQLVFYDSMGNSIPEVSDGASFSERQKRQIQNLGKGKRFYVTEVIARGPDGIERKIPAIEVIVN
How did the “stoichiometry N” value (cryo-EM structure [1]) turn out when B2 was run?
Its value is 2.

B3: GldL (Flavobacterium johnsoniae) (natural protein)
chain: MALLSKKVMNFAYGMGAAVVIVGALFKITHFEIGPLTGTVMLSIGLLTEALIFALSAFEPVEDELDWTLVYPELANGQARKKEAKAETATDAQGLLSQKLDAMLKEAKVDGELMASLGNSIKNFEGAAKAISPTVDSIAGQKKYAEEMSMAAAQMESLNSLYKVQLESASRNAQANSEIAENAAKLKEQMASMTANIASLNSVYGGMLSAMSNKG
For B3, which “stoichiometry N” value (cryo-EM structure [2]) is on record?
Its value is 5.
